Read-outs that look alike come from different tables or passages of the source. Ends that are not written are not given here.
Columns and labels:
[1] = molecular target: T1, human IL-2Rβ (CD122 protein, Fc Tag) (27-239) (human), P14784; assay: pH-dependent ELISA (Examples 9-12)
T1 chain: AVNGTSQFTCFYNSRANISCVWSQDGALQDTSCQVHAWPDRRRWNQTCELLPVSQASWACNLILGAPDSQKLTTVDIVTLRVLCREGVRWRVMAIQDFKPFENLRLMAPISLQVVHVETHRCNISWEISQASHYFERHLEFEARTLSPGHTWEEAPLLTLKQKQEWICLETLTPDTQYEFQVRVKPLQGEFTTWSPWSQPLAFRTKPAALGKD

[2] = molecular target: T1, human IL-2Rβ (CD122 protein, Fc Tag) …; assay: pH-dependent ELISA (Examples 9-12)

decrease in binding at pH 7.5 compared to pH 6.0 [1]: > 50%
decrease in binding at pH 7.5 compared to pH 6.0 [2]: > 15%
B1: SEQ ID NO 489 (peptide)
peptide: PGVQDCXIAHXGELCEFVWN
modifications: not fully specified; X: residue not identified in the source; ends and bridges not checked
